Results: patent US6777176 (ARPIDA, dated 2004)

B1: peptide 8 (peptide)
peptide: KKWHKRKK
B2: peptide 15 (peptide)
peptide: SGRKSTRVHHWLLVL
B3: peptide 2 (peptide)
peptide: KKFALRK
B4: peptide 9 (peptide)
peptide: KKFHIRKR
B5: peptide 13 (peptide)
peptide: WHKR
B6: peptide 12 (peptide)
peptide: WHKR
B7: peptide 14 (peptide)
peptide: GLRFGKTRVHYLVLG
B8: peptide 1 (peptide)
peptide: KKFHLRK
B9: peptide 31 (peptide)
peptide: MRLLKTLCFGLCG
B10: peptide 26 (peptide)
peptide: RHYLLF
B11: peptide 25 (peptide)
peptide: RHRTLF
B12: peptide 22 (peptide)
peptide: DGARLHYLF
B13: peptide 17 (peptide)
peptide: SSLRGHRWVY
B14: peptide 27 (peptide)
peptide: RHITSL
B15: peptide 28 (peptide)
peptide: RHITLF

molecular target: T1, enzyme I (phosphoenolpyruvate-protein-phosphatase, EC 2.7.3.9) of the bacterial phosphotransferase system (E. coli, UniProt P08839 1-575); experiment: cell-based or functional assay

Row | Binder | inhibition IC50 (µM) of in vitro phosphotransferase activity [µM] | uncoupling P1/peptide (x IC50/h)
1 | B1 | 375 | 64.2
2 | B2 | 1380 | 
3 | B3 | 60 | 6.6
4 | B4 | 1200 | 132
5 | B5 | 500 | 
6 | B6 | 410 | 
7 | B7 | 650 | 
8 | B8 | 25 | 3.2

molecular target: T1, enzyme I …; experiment: cell-based or functional assay; remark: another data set of the same source

Row | Binder | inhibition IC50 [µM] | uncoupling P1/peptide/h [P1/peptide/h]
9 | B9 | 4900 | 
10 | B10 | 300 | 0.29
11 | B11 | 530 | 0.23
12 | B12 | 820 | 0.05
13 | B13 |  | 0.07
14 | B14 | 440 | 0.215
15 | B15 | 160 | 0.31
